# Data reported in the supplement of paper PMC7125110.
# ± gives the standard error. For some assays here: This sample holds only a part of the variants without activity.
# B1: glmS ribozyme (parent)
# chain: AUAAAAGCGCCAGAACUACAGAAAUGUAGUUGACGAGGAGGAGGUUUAUCGAAUUUUCGGCGGAUGCCUCCAAA
# Columns and labels:
# Details in all cases: with glucosamine-6-phosphate
# [1] = variants of: B1; assay: kcat; higher = faster cleavage; RNA array
# How it was run: (§1)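 kcat and KM were obtained from weighted Michaelis–Menten fits across concentrations of kobs values. Those came from one- or two-exponential decay fits to per-tile medians normalised to baseline and to non-cleaving reference variants. The variants were barcoded ribozymes transcribed in situ by E. coli RNA polymerase on sequenced MiSeq chips and tracked through a hybridised Cy3 probe at 37 °C, with 40 μM to 10 mM glucosamine-6-phosphate in HEPES/KCl/Mg(OAc)2 buffer flowed in.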
# [2] = variants of: B1; assay: self-cleavage kobs at 640 uM GlcN6P; higher = faster cleavage; RNA array
# How it was run: as §1
# [3] = variants of: B1; assay: self-cleavage kobs at 2500 uM GlcN6P; higher = faster cleavage; RNA array
# How it was run: as §1
# [4] = variants of: B1; assay: self-cleavage kobs at 10000 uM GlcN6P; higher = faster cleavage; RNA array
# How it was run: as §1
# [5] = variants of: B1; assay: KM; higher = weaker cofactor use; RNA array
# How it was run: as §1
# [6] = variants of: B1; assay: self-cleavage kobs at 160 uM GlcN6P; higher = faster cleavage; RNA array
# How it was run: as §1
# [7] = variants of: B1; assay: self-cleavage kobs at 40 uM GlcN6P; higher = faster cleavage; RNA array
# How it was run: as §1
Variant,kcat [1] [s⁻¹],self-cleavage kobs at 640 uM GlcN6P [2] [s⁻¹],self-cleavage kobs at 2500 uM GlcN6P [3] [s⁻¹],self-cleavage kobs at 10000 uM GlcN6P [4] [s⁻¹],KM [5] [mM],self-cleavage kobs at 160 uM GlcN6P [6] [s⁻¹],self-cleavage kobs at 40 uM GlcN6P [7] [s⁻¹]
U31A C67A C68U,6.87e-05 ± 1.5e-05,0.000122 ± 3.5e-05,7.63e-05 ± 1.4e-05,5.53e-05 ± 1.3e-05,,,
A6G G29U,8.41e-05 ± 9.3e-06,,3.54e-05 ± 1e-05,6.03e-05 ± 9e-06,3.85 ± 1.1,,
A39G C58A,0.00088 ± 0.00013,0.000129 ± 3e-05,0.000275 ± 6.4e-05,0.000642 ± 7.7e-05,4.14 ± 1.1,4.38e-05 ± 1.9e-05,
G66C,0.000832 ± 7.4e-05,0.000244 ± 6.2e-06,0.000709 ± 3.8e-05,0.000712 ± 1.8e-05,1.47 ± 0.21,8.08e-05 ± 2.4e-06,2.55e-05 ± 1.8e-06
G13A A14U,0.000964 ± 0.00014,0.000184 ± 2.9e-05,0.000365 ± 5e-05,0.000781 ± 8e-05,3.12 ± 0.8,5.13e-05 ± 1.1e-05,
C16U C70G,0.000316 ± 9.7e-05,0.000186 ± 1.6e-05,0.000619 ± 0.00016,0.000497 ± 0.00011,,9.18e-05 ± 8.2e-06,4.19e-05 ± 6.7e-06
C10A A12C,0.00025 ± 4.4e-05,4.03e-05 ± 8.4e-06,0.000143 ± 1.2e-05,0.000185 ± 1.9e-05,2.52 ± 0.93,,
C16U A42C,1.1e-05 ± 6.5e-07,,,,,,
G13A G29C,0.00011 ± 4.9e-06,,5.98e-05 ± 1.3e-05,9.3e-05 ± 1.7e-05,1.99 ± 0.24,,
A15C G66U,0.000265 ± 3.3e-05,4.02e-05 ± 7.2e-06,0.000134 ± 1.5e-05,0.000194 ± 2.2e-05,3.08 ± 0.74,,
G7U C16U C50G U69G,0.000615 ± 0.00015,0.0012 ± 0.00039,0.000564 ± 0.0002,0.00054 ± 0.00017,,,0.00029 ± 0.00013
A12G U46G,0.000475 ± 2.8e-05,2.82e-05 ± 1.2e-05,0.000105 ± 1.5e-05,0.000248 ± 2.3e-05,9.04 ± 0.89,,
U45C U55A,0.00681 ± 0.0026,0.000581 ± 0.00013,0.00182 ± 0.00067,0.00457 ± 0.0012,5.9 ± 2.8,,5.89e-05 ± 1.4e-05
A15C C16U A53G U55A C68G,3.32e-05 ± 6.7e-06,,3.96e-05 ± 1.4e-05,,,3.89e-05 ± 1.8e-05,
G40C U46A,0.000264 ± 7.1e-05,7.92e-05 ± 1.6e-05,0.000286 ± 4.6e-05,0.000207 ± 3.1e-05,,,
G37U C67U,1.39e-05 ± 4.5e-06,,,,,,< 1e-05
A15C G40U,0.000399 ± 4.3e-05,0.000135 ± 1.4e-05,0.000333 ± 5.3e-05,0.000348 ± 4.2e-05,1.14 ± 0.23,5.39e-05 ± 1e-05,
C67G C71A,< 1e-05,,,,,,
C10U C67G,2.65e-05 ± 6.6e-06,,2.88e-05 ± 1.1e-05,,,,

Variant,kcat [1] [s⁻¹],self-cleavage kobs at 640 uM GlcN6P [2] [s⁻¹],self-cleavage kobs at 2500 uM GlcN6P [3] [s⁻¹],self-cleavage kobs at 10000 uM GlcN6P [4] [s⁻¹],KM [5] [mM],self-cleavage kobs at 160 uM GlcN6P [6] [s⁻¹],self-cleavage kobs at 40 uM GlcN6P [7] [s⁻¹]
A14U A36C C50U,1.43e-05 ± 5.6e-06,,,,,,
G7C C50G,1.12e-05 ± 2.4e-06,,,,,,
A33U A52G,3.65e-05 ± 1.3e-05,,,1.94e-05 ± 7.9e-06,,,
A6U C67G,1.15e-05 ± 1.2e-06,,,,,,
U56C C58U,6.39e-05 ± 2.4e-06,,2.41e-05 ± 1.1e-05,4.48e-05 ± 8.5e-06,4.24 ± 0.44,,
U56C C58G,2.76e-05 ± 8.3e-06,,,,,,
A14C A33U C50U C70A,3.25e-05 ± 1.4e-05,4.2e-05 ± 1.9e-05,,,,,
G29U U46G,0.00127 ± 0.00012,0.000259 ± 5e-05,0.000689 ± 0.00011,0.00106 ± 0.00013,2.11 ± 0.34,9.52e-05 ± 2e-05,3.07e-05 ± 9.8e-06
U46G A52G,0.00059 ± 3.1e-05,5.26e-05 ± 1.6e-05,0.000185 ± 9.1e-05,0.00036 ± 4.6e-05,6.37 ± 0.65,,
U45G A53C,0.00249 ± 0.00031,0.000627 ± 0.00012,0.00179 ± 0.00022,0.00197 ± 0.00021,1.82 ± 0.37,0.000176 ± 3.1e-05,5.63e-05 ± 8.5e-06
A36G,2.12e-05 ± 2.6e-06,,1.72e-05 ± 3e-06,1.89e-05 ± 1.4e-06,,,
G40U C70A,0.000457 ± 7.9e-05,0.000149 ± 1.8e-05,0.000434 ± 7.3e-05,0.000372 ± 4.6e-05,1.36 ± 0.46,3.45e-05 ± 1.4e-05,
G9U C71U,< 1e-05,< 1e-05,,< 1e-05,,< 1e-05,< 1e-05
A14U G29C U46G C70A,2.85e-05 ± 1.1e-05,,,,,,
A6U G40A,5.46e-05 ± 2e-06,,3.37e-05 ± 1e-05,4.67e-05 ± 7e-06,1.65 ± 0.28,,
G13U C34U,< 1e-05,,< 1e-05,,,,< 1e-05
G13A U30A,0.000292 ± 4.6e-05,3.94e-05 ± 1.3e-05,0.000128 ± 2.3e-05,0.000202 ± 5.4e-05,3.63 ± 0.96,< 1e-05,
U49G C70G,4.12e-05 ± 2.8e-06,4.22e-05 ± 9e-06,3.6e-05 ± 8e-06,4.11e-05 ± 6e-06,,3.09e-05 ± 1.3e-05,
